US20180291096A1 (Janssen / Centocor, published 2018)
Residue numbers refer to the chain shown, from its start.

T1: recombinant human IL-23 (hrIL-23), produced at Centocor (human, UniProt P29460 23-328)
T1 sequence 1: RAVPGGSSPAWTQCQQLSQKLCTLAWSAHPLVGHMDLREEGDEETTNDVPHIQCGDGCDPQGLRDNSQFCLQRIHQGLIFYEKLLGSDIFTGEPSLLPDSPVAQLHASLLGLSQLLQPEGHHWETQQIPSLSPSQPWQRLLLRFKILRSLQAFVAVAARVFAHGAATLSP
T1 sequence 2: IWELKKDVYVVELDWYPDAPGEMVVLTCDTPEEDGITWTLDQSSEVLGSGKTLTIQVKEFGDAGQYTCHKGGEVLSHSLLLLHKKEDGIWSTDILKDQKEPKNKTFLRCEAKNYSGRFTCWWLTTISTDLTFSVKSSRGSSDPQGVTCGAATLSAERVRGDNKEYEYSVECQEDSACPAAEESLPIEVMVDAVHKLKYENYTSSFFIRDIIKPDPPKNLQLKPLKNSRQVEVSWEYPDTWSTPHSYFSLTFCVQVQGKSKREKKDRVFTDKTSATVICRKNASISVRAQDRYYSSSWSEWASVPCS

B1: MOR04649 mAb (antibody, human IgG1, V domains shown)
VH: QVELVQSGAEVKKPGESLKISCKGSGYSFSNYWIGWVRQMPGKGLEWMGIIDPSNSYTNYSPSFQGQVTISADKSISTAYLQWSSLKASDTAMYYCARWYYKPFDVWGQGTLVTVSS
VL: DIVLTQPPSVSGAPGQRVTISCTGSSSNIGSGYDVHWYQQLPGTAPKLLIYGNSKRPSGVPDRFSGSKSGTSASLAITGLQSEDEADYYCSSWTPSSVVFGGGTKLTVL
B2: MOR05041 mAb (antibody, human IgG1, V domains shown)
VH: B1 VH with D52S, S54T, N55G, Y57V, N59W
VL: B1 VL
B3: MOR05058 mAb (antibody, human IgG1, V domains shown)
VH: B1 VH
VL: DIVLTQPPSVSGAPGQRVTISCTGSSSNIGSGYDVHWYQQLPGTAPKLLIYGNSKRPSGVPDRFSGSKSGTSASLAITGLQSEDEADYYCSSWTDTPNMIVFGGGTKLTVL
B4: MOR05059 mAb (antibody, human IgG1, V domains shown)
VH: B1 VH
VL: B3 VL with S91A, T96G, P97L, N98S, M99L, I100V
B5: MOR05046 mAb (antibody, human IgG1, V domains shown)
VH: B1 VH with S54V, N55S, Y57W, N59K
VL: B1 VL
B6: MOR05044 mAb (antibody, human IgG1, V domains shown)
VH: B1 VH with D52S, N55G, Y57T, N59W
VL: B1 VL
B7: MOR05043 mAb (antibody, human IgG1, V domains shown)
VH: B1 VH with I50F, D52S, S54D, N55G, Y57H, N59W
VL: B1 VL
B8: MOR05045 mAb (antibody, human IgG1, V domains shown)
VH: B1 VH with D52S, S54T, N55G, Y57A, N59W
VL: B1 VL
B9: MOR05042 mAb (antibody, human IgG1, V domains shown)
VH: B1 VH with D52S, S54T, N55G, Y57S, N59W
VL: B1 VL
B10: MOR05054 mAb (antibody, human IgG1, V domains shown)
VH: QVELVESGGGLVQPGGSLRLSCAASGFTFSSFGMSWVRQAPGKGLEWVSGIEHKYLSYATLYAASVKGRFTISRDNSKNTLYLQMNSLRAEDTAVYYCARYWGTPYLMQFDNWGQGTLVTVSS
VL: DIALTQPASVSGSPGQSITISCTGTSSDVGGYNSVSWYQQHPGKAPKLMIYSVSSRPSGVSNRFSGSKSGNTASLTISGLQAEDEADYYCSSYDTNKPLVVFGGGTKLTVL
B11: MOR05050 mAb (antibody, human IgG1, V domains shown)
VH: B10 VH with G50S, L56T, S57G, A59T, L61Y, S65P
VL: B10 VL
B12: MOR05039 mAb (antibody, human IgG1, V domains shown)
VH: B10 VH with G50N, S57N, L61Y
VL: B10 VL
B13: MOR05062 mAb (antibody, human IgG1, V domains shown)
VH: QVELVESGGGLVQPGGSLRLSCAASGFTFSSFGMSWVRQAPGKGLEWVSNISSSGSSTYYADSVKGRFTISRDNSKNTLYLQMNSLRAEDTAVYYCARYWGTPYLMQFDNWGQGTLVTVSS
VL: B10 VL with S91Q, S92T, D94Y, T95F, N96S, K97Y, P98S, L99G, V100P
B14: MOR05047 mAb (antibody, human IgG1, V domains shown)
VH: B10 VH with G50N, S57G, L61S
VL: B10 VL
B15: MOR05055 mAb (antibody, human IgG1, V domains shown)
VH: B10 VH with G50N, S57G, L61V
VL: B10 VL
B16: MOR05052 mAb (antibody, human IgG1, V domains shown)
VH: B10 VH with G50S, A59T, L61F
VL: B10 VL
B17: MOR05063 mAb (antibody, human IgG1, V domains shown)
VH: B13 VH
VL: B10 VL with S91G, Y93W, T95P, N96I, K97F, P98S, L99Y, V100E
B18: MOR05056 mAb (antibody, human IgG1, V domains shown)
VH: B10 VH with G50S, L61Y, S65G
VL: B10 VL
B19: MOR05048 mAb (antibody, human IgG1, V domains shown)
VH: B10 VH with G50N, Y55F, L56M, S57G, A59T, L61Y, S65G
VL: B10 VL
B20: MOR05051 mAb (antibody, human IgG1, V domains shown)
VH: B10 VH with G50Q, A59T
VL: B10 VL
B21: MOR05053 mAb (antibody, human IgG1, V domains shown)
VH: B10 VH with G50N, L56T, A59T, L61Y
VL: B10 VL
B22: MOR05038 mAb (antibody, human IgG1, V domains shown)
VH: QVELVQSGAEVKKPGSSVKVSCKASGGTFSSNYISWVRQAPGQGLEWMGINAHLGGTWYAQKFQGRVTITADESTSTAYMELSSLRSEDTAVYYCARSKKGMYGGWTYPLMMFDLWGQGTLVTVSS
VL: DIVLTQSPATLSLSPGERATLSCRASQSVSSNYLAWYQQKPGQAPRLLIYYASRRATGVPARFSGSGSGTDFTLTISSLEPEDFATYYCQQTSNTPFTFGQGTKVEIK
B23: MOR05040 mAb (antibody, human IgG1, V domains shown)
VH: QVELVQSGAEVKKPGSSVKVSCKASGGTFSSNYISWVRQAPGQGLEWMGISPGTGINAYYAQKFQGRVTITADESTSTAYMELSSLRSEDTAVYYCARSKKGMYGGWTYPLMMFDLWGQGTLVTVSS
VL: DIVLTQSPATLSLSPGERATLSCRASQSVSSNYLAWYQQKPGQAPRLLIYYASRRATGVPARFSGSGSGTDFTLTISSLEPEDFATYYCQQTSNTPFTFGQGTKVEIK
B24: MOR05034 mAb (antibody, human IgG1, V domains shown)
VH: B23 VH with I50L, S51I, P52D, G53P, T54N, G55F, I56G, N57G
VL: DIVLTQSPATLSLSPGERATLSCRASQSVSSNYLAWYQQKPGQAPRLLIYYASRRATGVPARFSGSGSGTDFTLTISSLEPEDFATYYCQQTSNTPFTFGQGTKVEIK
B25: MOR05029 mAb (antibody, human IgG1, V domains shown)
VH: B23 VH with I50G, S51I, P52I, G53P, T54I, G55F, I56G, N57H, Y59N
VL: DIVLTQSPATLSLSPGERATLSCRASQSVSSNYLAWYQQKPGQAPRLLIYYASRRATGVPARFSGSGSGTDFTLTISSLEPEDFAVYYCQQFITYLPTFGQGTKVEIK
B26: MOR05030 mAb (antibody, human IgG1, V domains shown)
VH: B23 VH with I50G, S51I, P52I, G53P, T54I, G55F, I56G, N57H, Y59N
VL: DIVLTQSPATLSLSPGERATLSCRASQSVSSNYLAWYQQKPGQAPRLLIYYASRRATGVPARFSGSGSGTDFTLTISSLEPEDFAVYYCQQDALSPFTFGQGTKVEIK
B27: MOR05036 mAb (antibody, human IgG1, V domains shown)
VH: B23 VH with I50L, S51I, P52D, G53P, T54V, G55F, I56G, N57G
VL: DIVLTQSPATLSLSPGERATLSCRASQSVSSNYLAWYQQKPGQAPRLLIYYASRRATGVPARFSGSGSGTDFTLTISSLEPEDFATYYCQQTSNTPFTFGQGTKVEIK
B28: MOR05031 mAb (antibody, human IgG1, V domains shown)
VH: B23 VH with I50G, S51I, P52I, G53P, T54I, G55F, I56G, N57H, Y59N
VL: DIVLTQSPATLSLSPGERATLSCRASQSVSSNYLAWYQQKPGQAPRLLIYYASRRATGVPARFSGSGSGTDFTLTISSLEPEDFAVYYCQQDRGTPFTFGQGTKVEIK
B29: MOR05032 mAb (antibody, human IgG1, V domains shown)
VH: B23 VH with I50G, S51I, P52I, G53P, T54I, G55F, I56G, N57H, Y59N
VL: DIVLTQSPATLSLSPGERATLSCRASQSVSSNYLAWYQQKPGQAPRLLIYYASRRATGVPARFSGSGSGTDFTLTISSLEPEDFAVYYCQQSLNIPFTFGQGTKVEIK
B30: MOR05028 mAb (antibody, human IgG1, V domains shown)
VH: QVELVQSGAEVKKPGSSVKVSCKASGGTFSNYAISWVRQAPGQGLEWMGGIIPVFGFTHYAQKFQGRVTITADESTSTAYMELSSLRSEDTAVYYCARDIYAGMDVWGQGTLVTVSS
VL: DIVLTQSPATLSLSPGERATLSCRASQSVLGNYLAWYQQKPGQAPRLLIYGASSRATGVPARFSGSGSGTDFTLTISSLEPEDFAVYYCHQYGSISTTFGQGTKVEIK

Target: T1, recombinant human IL-23 (hrIL-23), …
Assay: cell-based or functional assay

IC50, inhibition of IL-17 production | Binder
0.276 µg/mL | B1
0.00301 µg/mL | B2
0.00285 µg/mL | B3
0.0106 µg/mL | B4
0.0428 µg/mL | B5
0.0141 µg/mL | B6
0.0144 µg/mL | B7
0.0014 µg/mL | B8
0.00127 µg/mL | B9
0.00323 µg/mL | B10
0.0277 µg/mL | B11
0.161 µg/mL | B12
0.199 µg/mL | B13
0.0234 µg/mL | B14
0.0916 µg/mL | B15
0.0178 µg/mL | B16
0.198 µg/mL | B17
0.092 µg/mL | B18
0.0162 µg/mL | B19
0.0663 µg/mL | B20
0.00493 µg/mL | B21
0.0282 µg/mL | B22
0.00264 µg/mL | B23
0.185 µg/mL | B24
0.0491 µg/mL | B25
0.0646 µg/mL | B26
0.17 µg/mL | B27
0.215 µg/mL | B28
0.172 µg/mL | B29
0.104 µg/mL | B30
